Each block holds one binder with its values, some of them ahead of it.
Experiments:
Assay in all cases: two-hybrid library CCNG1;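 also: natural log of median RNA to DNA barcode read ratio; higher means stronger binding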
O5-bS = biological target: T1, O5-bS
T1 chain: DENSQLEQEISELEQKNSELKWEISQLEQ

O9-bS = biological target: T2, O9-bS
T2 chain: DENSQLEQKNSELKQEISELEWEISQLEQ

O6-bS = biological target: T3, O6-bS
T3 chain: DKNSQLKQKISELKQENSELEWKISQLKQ

O8-bS = biological target: T4, O8-bS
T4 chain: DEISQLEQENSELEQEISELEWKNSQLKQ

O7-bS = biological target: T5, O7-bS
T5 chain: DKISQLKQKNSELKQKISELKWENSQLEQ

4H967-bA = biological target: T6, 4H967-bA
T6 chain: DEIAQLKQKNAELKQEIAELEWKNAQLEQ

4H883-bA = biological target: T7, 4H883-bA
T7 chain: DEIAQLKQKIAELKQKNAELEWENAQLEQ

4H607-bA = biological target: T8, 4H607-bA
T8 chain: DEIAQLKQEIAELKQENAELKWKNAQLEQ

4H570-bA = biological target: T9, 4H570-bA
T9 chain: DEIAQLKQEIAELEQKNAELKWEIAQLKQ

4H687-bA = biological target: T10, 4H687-bA
T10 chain: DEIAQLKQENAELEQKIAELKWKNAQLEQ

4H462-bA = biological target: T11, 4H462-bA
T11 chain: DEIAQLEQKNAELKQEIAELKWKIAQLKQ

4H906-bN = biological target: T12, 4H906-bN
T12 chain: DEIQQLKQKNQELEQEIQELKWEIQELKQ

4H797-bA = biological target: T13, 4H797-bA
T13 chain: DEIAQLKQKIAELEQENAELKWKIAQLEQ

4H568-bA = biological target: T14, 4H568-bA
T14 chain: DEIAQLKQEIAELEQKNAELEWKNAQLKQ

4H953-bA = biological target: T15, 4H953-bA
T15 chain: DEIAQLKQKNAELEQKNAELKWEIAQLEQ

4H72-bA = biological target: T16, 4H72-bA
T16 chain: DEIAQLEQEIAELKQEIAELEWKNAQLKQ

O6-bA = biological target: T17, O6-bA
T17 chain: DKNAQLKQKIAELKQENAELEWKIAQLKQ

4H918-bA = biological target: T18, 4H918-bA
T18 chain: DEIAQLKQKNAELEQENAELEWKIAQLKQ

4H796-bA = biological target: T19, 4H796-bA
T19 chain: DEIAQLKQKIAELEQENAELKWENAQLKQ

4H730-bA = biological target: T20, 4H730-bA
T20 chain: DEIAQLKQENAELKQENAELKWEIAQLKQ

4H949-bA = biological target: T21, 4H949-bA
T21 chain: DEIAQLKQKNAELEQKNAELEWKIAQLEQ

4H3381-bA = biological target: T22, 4H3381-bA
T22 chain: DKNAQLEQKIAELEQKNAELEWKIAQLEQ

P8A = biological target: T23, P8A
T23 chain: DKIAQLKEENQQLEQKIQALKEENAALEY

4H3364-bA = biological target: T24, 4H3364-bA
T24 chain: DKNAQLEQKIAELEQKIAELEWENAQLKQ

4H932-bA = biological target: T25, 4H932-bA
T25 chain: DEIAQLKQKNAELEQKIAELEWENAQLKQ

4H349-bA = biological target: T26, 4H349-bA
T26 chain: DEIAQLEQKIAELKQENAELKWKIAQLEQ

4H56-bA = biological target: T27, 4H56-bA
T27 chain: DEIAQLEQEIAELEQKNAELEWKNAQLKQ

4H2915-bA = biological target: T28, 4H2915-bA
T28 chain: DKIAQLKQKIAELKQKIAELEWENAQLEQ

4H492-bA = biological target: T29, 4H492-bA
T29 chain: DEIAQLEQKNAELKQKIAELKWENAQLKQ

4H2839-bA = biological target: T30, 4H2839-bA
T30 chain: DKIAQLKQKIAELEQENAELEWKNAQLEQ

4H3277-bA = biological target: T31, 4H3277-bA
T31 chain: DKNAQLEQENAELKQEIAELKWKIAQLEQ

4H40-bA = biological target: T32, 4H40-bA
T32 chain: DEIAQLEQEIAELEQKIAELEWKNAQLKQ

4H477-bA = biological target: T33, 4H477-bA
T33 chain: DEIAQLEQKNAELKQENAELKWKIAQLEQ

4H348-bA = biological target: T34, 4H348-bA
T34 chain: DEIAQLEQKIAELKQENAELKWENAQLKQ

4H741-bA = biological target: T35, 4H741-bA
T35 chain: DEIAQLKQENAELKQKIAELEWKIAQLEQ

4H3057-bA = biological target: T36, 4H3057-bA
T36 chain: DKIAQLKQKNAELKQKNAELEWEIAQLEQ

4H319-bA = biological target: T37, 4H319-bA
T37 chain: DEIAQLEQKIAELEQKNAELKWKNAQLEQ

interaction score (O5-bS): -1.98
interaction score (O9-bS): -0.729
interaction score (O6-bS): 2.08
interaction score (O8-bS): -1.34
interaction score (O7-bS): -1.98
Binder: DENSQLEQEISELEQKNSELKWEISQLEQ [O5-bS]

interaction score (4H967-bA): -0.0789
interaction score (4H883-bA): -1.19
interaction score (4H607-bA): -0.0392
interaction score (4H570-bA): -2.87
interaction score (4H687-bA): 0.993
interaction score (4H462-bA): 1.24
interaction score (4H906-bN): 0.676
interaction score (4H797-bA): -0.251
interaction score (4H568-bA): -0.962
interaction score (4H953-bA): -0.872
interaction score (4H72-bA): 0.312
interaction score (O6-bA): 1.7
interaction score (4H918-bA): -1.06
Binder: DEIAQLEQKNAELKQEIAELKWKIAQLKQ [4H462-bA]

interaction score (4H796-bA): 0.137
interaction score (4H730-bA): 0.124
interaction score (4H949-bA): -1.22
interaction score (4H3381-bA): -0.647
interaction score (P8A): -0.26
interaction score (4H3364-bA): 1.01
interaction score (4H932-bA): -0.586
interaction score (4H349-bA): -1.53
interaction score (4H56-bA): 0.349
Binder: DKNAQLEQKIAELEQKIAELEWENAQLKQ [4H3364-bA]

interaction score (4H2915-bA): -0.223
interaction score (4H492-bA): -0.582
interaction score (4H2839-bA): 0.104
interaction score (4H3277-bA): -0.969
interaction score (4H40-bA): 1.35
interaction score (4H477-bA): -0.768
interaction score (4H348-bA): -0.533
interaction score (4H741-bA): -0.816
interaction score (4H3057-bA): -0.0141
interaction score (4H319-bA): 1.61
Binder: DKIAQLKQKIAELEQENAELEWKNAQLEQ [4H2839-bA]

Source: paper PMC10397247
